Experimental findings from patent US20250257116A1 are described below.

For test [1], the target named is CD16-WT (Homo sapiens (Human)) (UniProt P08637). The test is described as follows: cell-based or functional assay.
Test [2] has as its target CD16-F176V-V196_S197insP-V197_T198insP (Homo sapiens (Human)) (UniProt P08637). The test is described as follows: cell-based or functional assay.

Consider “metalloproteinase 17 (ADAM17) (from UniProt P78536 215-824) (enzyme)”, for which the decrease of CD16 expression on iNK cells after adding Raji cells and Rituximab in test [1] was determined as 40%; in test [2], 9%.
